One molecule from US20250136677A1 (ZOETIS SERVICES, published 2025) can be followed below.

Bounds are passed on as bounds.

For experiment [1], the target named is T1, wildtype feline IL-31 protein (Feline_IL31_wildtype) (feline).
T1 construct: Full length feline IL-31 with C-terminal His tag, secreted from ExpiCHO cells; also called fIL-31
T1 chain: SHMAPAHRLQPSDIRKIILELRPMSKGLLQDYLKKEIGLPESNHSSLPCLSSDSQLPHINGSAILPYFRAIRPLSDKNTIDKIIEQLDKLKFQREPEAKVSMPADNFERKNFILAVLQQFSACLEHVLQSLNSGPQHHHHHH
The experiment in a line: SPR (Biacore), IL-31 on chip. As to the method: The affinity with which candidate mAbs bind canine and feline IL-31 was determined using surface plasmon resonance (SPR) on a Biacore system (Biocore Life Sciences (GE Healthcare), Uppsala, Sweden). To avoid affinity differences associated with differential surface preparation that can occur when immobilizing antibodies to surfaces; a strategy was employed where IL-31 was directly conjugated to the surface. Immobilization was obtained by amine coupling 5 μg/mL IL-31 using N-hydroxysuccinimide (NHS)/1-Ethyl-3-(3-dimethylaminopropyl) carbodiimide (EDC) chemistry. Chips were quenched with ethanolamine and the affinity with which all candidate mAbs bound to the immobilized IL-31 was evaluated. All curves were fit to a 1:1 model. […] Results for affinity measurements are described herein.
FIG. 2 details the affinity of antibodies with CDRs derived from mouse origin using biacore. […] These observations confirm the correct sequence for both mouse antibodies and indicate conversion to the chimeric form results in antibodies with equivalent or higher affinity when compared to the mouse parent with the exception of the mouse:feline 15H05 chimera which lost some affinity to both IL-31 species as a result of its conversion to the chimeric form. […]
Background: Surface plasmon resonance follows binding to a sensor surface in real time, without labels.

Experiment [2] deals with T1, wildtype feline IL-31 protein …. The experiment in a line: cell-based or functional assay.

B1: Feline 11E12 1.2 (antibody, V domains shown)
VH: QVLLVQSGAEVKKPGASVKIFCKASGYSFTYYDINWLRQAPEQGLEWMGWIFPGDGGTKYNETFKGRLTLTADTSTNTVYMELSSLRSADTAMYYCARGGTSVIRDAMDYWGQGALVTVSS
VL: EVVLTQSSAFLSRTLKEKATITCRASESVDNYGISFMHWYQQKPNQAPKLLVKRASNLESGAPSRFSGSGSGTDFTLTISSPEPEDAATYYCQQSNKDPLTFGQGT
notes: Feline heavy and kappa constant regions; also called felinized 11E12 1.2
Consider B1, for which, in experiment [1], the binding result is “no binding”. In experiment [2], the “IC50, inhibition of feline IL-31-induced STAT3 phosphorylation, canine DH82 cells” value is greater than 100 µg/mL and the “IC50, inhibition of feline IL-31-induced STAT3 phosphorylation, feline FCWF4 cells” value is greater than 100 µg/mL.
